Publication PMC4856805

Key:
Test in all cases: SPR
[1] = biological target: MEDI4212 3M (S239D/A330L/I332E) (human)
[2] = biological target: MEDI4212 2M2 (S239D/I332E) (human)
MEDI4212 aFuc (human) = biological target: MEDI4212 aFuc (human)
[3] = biological target: MEDI4212 wild-type (WT) monoclonal antibody (human)

Kd [1] [nM]	Kd [2] [nM]	Kd (MEDI4212 aFuc (human)) [nM]	Kd [3] [nM]	Substance
36	67	389	4960	Flag-tagged hFcγRIIIa (158F) (from UniProt P08637 17-254) (receptor)
7	7	50	502	Flag-tagged hFcγRIIIa (158V) (receptor)
